According to patent publication US5451506A, “Oncostatin M and novel compositions having anti-neoplastic activity” (Oncogen Limited Partnership, priority 1993, dated 1995):

Key:
[1] = biological target: T1, Oncostatin M receptor on A375 or A549 cells (Homo sapiens, UniProt P40189+Q99650); test: Specificity of Oncostatin M receptor: competition for binding of 125I-Oncostatin M; details: 125I-Oncostatin M 30-50 ng/ml
T1 construct: endogenous in cells; host or cells: A375 or A549 cells (intact monolayers)
T1 sequence (Q99650 28-979): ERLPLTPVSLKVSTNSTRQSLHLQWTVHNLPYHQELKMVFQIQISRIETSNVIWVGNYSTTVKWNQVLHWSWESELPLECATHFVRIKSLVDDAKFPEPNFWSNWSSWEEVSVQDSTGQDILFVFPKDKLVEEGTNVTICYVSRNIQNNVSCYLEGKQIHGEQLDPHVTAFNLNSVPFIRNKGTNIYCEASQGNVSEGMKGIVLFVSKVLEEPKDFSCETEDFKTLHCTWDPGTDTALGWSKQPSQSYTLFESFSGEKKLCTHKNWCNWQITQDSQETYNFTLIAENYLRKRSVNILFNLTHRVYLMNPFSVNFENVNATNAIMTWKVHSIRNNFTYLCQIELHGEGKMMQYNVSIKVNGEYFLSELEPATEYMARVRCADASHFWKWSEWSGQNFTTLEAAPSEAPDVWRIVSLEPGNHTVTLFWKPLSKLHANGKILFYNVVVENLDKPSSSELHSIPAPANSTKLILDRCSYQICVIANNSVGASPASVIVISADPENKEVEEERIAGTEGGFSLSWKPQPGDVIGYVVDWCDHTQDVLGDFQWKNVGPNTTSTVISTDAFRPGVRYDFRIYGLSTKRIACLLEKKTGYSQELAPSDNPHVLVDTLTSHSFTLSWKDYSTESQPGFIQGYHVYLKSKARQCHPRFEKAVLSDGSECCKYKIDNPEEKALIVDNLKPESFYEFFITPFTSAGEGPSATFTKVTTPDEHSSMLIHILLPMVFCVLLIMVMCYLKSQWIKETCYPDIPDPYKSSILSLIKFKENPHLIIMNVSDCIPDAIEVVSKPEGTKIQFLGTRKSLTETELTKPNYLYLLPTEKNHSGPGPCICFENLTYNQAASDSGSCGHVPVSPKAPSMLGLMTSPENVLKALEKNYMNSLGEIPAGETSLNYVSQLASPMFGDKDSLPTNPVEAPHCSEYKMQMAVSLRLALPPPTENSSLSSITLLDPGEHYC
T1 sequence (P40189 23-918): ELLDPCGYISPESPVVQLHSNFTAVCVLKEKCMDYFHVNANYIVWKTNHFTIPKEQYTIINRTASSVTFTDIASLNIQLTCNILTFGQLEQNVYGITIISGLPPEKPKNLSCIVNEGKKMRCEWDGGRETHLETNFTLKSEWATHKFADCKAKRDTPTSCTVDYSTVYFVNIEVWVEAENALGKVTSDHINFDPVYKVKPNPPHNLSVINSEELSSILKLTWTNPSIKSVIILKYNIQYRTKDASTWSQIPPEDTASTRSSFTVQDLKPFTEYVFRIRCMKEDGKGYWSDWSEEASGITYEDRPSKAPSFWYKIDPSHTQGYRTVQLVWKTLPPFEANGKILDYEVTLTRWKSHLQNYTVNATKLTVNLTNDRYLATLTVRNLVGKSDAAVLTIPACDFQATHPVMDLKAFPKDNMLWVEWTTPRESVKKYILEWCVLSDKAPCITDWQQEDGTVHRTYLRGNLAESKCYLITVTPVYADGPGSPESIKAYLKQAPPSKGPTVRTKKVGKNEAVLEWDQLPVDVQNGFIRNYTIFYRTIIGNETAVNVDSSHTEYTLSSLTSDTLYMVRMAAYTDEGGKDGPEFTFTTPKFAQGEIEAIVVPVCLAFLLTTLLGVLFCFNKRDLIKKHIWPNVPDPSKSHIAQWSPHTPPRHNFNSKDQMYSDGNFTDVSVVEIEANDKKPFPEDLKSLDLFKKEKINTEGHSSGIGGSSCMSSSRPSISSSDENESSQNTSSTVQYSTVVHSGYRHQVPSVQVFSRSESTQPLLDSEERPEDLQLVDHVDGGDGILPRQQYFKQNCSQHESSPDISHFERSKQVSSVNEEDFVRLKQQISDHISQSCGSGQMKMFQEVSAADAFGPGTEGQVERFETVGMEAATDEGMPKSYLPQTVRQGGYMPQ
Procedure: The cell line of interest was plated in 48-well plates at a density of 2×10^5 cells/well and maintained at 37° C. for 16-24 hours before initiation of the assay. Cell monolayers were then washed once with Binding buffer (Linsley et al., Biochemistry (1986) 25:2978-2986). To measure total binding, ^125 I-Oncostatin M was added at concentrations ranging from 0.5-100 ng/ml. To measure non-specific binding, unlabeled Oncostatin M was added simultaneously with the ^125 I-Oncostatin M to replicate plates at a concentration 20- to 100-fold higher than the concentration of ^125 I-Oncostatin M. Binding was allowed to proceed for 2-5 hours at 23°, then the monolayers were washed four times with Binding Buffer, cell-bound radioactivity was solubilized with 1N NaOH and was counted in a gamma counter. Specific binding was calculated by subtracting the non-specific binding from total binding. The dissociation constant (Kd) and binding capacity was determined by Scatchard analysis (Scatchard, Ann. N.Y. Acad. Sci. (1949) 51:660).
The specificity of the Oncostatin M receptor was determined by evaluating the ability of several other polypeptide growth factors to compete for binding of ^125 I-Oncostatin M (at 30-50 ng/ml) to A375 or A549 cells.

[2] = test system: A375 cells; test: Growth inhibition assay (A375 proliferation; synergy tests); type: cell-based, human; details: 3.4 U/ml, alone
Procedure: A375 melanoma cells (4×10^3 cells/50 μl), Mv1Lu mink lung epithelial cells (3.5×10^3 cells/50 μl), or other cell line of interest at an appropriate cell density were subcultured for four hours on flat-bottomed 96-well tissue culture plates (Costar 3596, Cambridge, Mass.) in growth medium comprising Dulbecco's modified Eagle's medium (DMEM), supplemented with 10% heat-in-activated fetal bovine serum, and P/S. Test samples to be assayed for growth inhibition were diluted in growth medium and assayed in triplicate with 50 μl of the diluted sample added to each well. The cells were incubated for 72 hours at 37° C.
The growth inhibitory activity of highly purified TGF-β1, recombinant gamma-interferon (rIFN-γ), and Oncostatin M on A375 cells was determined, and possible synergy between TGF-β1 and Oncostatin M, TGF-β1 and rIFN-γ, and Oncostatin M and rIFN-γ in inhibiting A375 proliferation was tested. […] is expressed in units of Mv1Lu growth inhibitory activity, rIFN-γ in units of anti-viral activity and Oncostatin M in units of A375 growth inhibitory activity. Concentrations of TGF-β1 (1-30 U/ml) and Oncostatin M (0.5-10 U/ml) were chosen which caused either no or only minimal growth inhibition when tested individually.

[3] = test system: A375 cells; test: Growth inhibitory assay of recombinant Oncostatin M (crystal violet staining); type: cell-based, human; details: for Oncostatin M activity in medium of transfected COS cells: further test, one unit inhibits growth of A375 cells by 50%; for Expression Level Units/ml (growth inhibitory activity): medium or extract of the expressing host cells (COS, CHO without methotrexate amplification, sf9)
Procedure: Biological activity of recombinant Oncostatin M was assessed by a growth inhibitory assay. Briefly, aliquots of extracts from transformed cells or medium from cell cultures were lyophilized with 20 μg bovine serum albumin as a carrier protein, resuspended in DMEM containing 10% fetal calf serum, and diluted serially before addition to 96-well cultures containing A375 cells (3.5×10^3 cells/well). […] Recombinant Oncostatin M was prepared using the following expression systems: E. coli, COS cells, CHO and insect cells (sf9).

Lys^3 bombesin
Inhibitory activity towards binding of 125I-Oncostatin M ([1]; competitor 50 μM): None of these showed significant inhibitory activity

TGF-β1: highly purified transforming growth factor-β1, units of Mv1Lu growth inhibitory activity
Inhibition of cell growth [2]: 7%

Tyr^3 -bombesin
Inhibitory activity towards binding of 125I-Oncostatin M ([1]; competitor 1 μM): None of these showed significant inhibitory activity

epidermal growth factor: polypeptide growth factor tested as competitor
Inhibitory activity towards binding of 125I-Oncostatin M ([1]; competitor 2.5 μg/ml): None of these showed significant inhibitory activity

fibroblast growth factor
Inhibitory activity towards binding of 125I-Oncostatin M ([1]; competitor 2.5 μg/ml): None of these showed significant inhibitory activity

formyl-M-L-F
Inhibitory activity towards binding of 125I-Oncostatin M ([1]; competitor 50 μM): None of these showed significant inhibitory activity

interleukin 1-β: polypeptide growth factor tested as competitor
Inhibitory activity towards binding of 125I-Oncostatin M ([1]; competitor 50 μg/ml): None of these showed significant inhibitory activity

B1: gamma interferon: gamma-interferon; recombinant in the synergy tests (protein, UniProt P01579 24-161, looked up)
Interferon gamma: QDPYVKEAENLKKYFNAGHSDVADNGTLFLGILKNWKEESDRKIMQSQIVSFYFKLFKNFKDDQSIQKSVETIKEDMNVKFFNSNKKKRDDFEKLTNYSVTDLNVQRKAIHELIQVMAELSPAAKTGKRKRSQMLFRG
Inhibitory activity towards binding of 125I-Oncostatin M ([1]; competitor 2.5 μg/ml): None of these showed significant inhibitory activity

B2: pH3M/βOncM: Oncostatin M with βTGF leader sequence fused to the coding sequence, secreted into medium (protein, UniProt P13725 26-221, looked up)
Oncostatin-M: AAIGSCSKEYRVLLGQLQKQTDLMQDTSRLLDPYIRIQGLDVPKLREHCRERPGAFPSEETLRGLGRRGFLQTLNATLGCVLHRLADLEQRLPKAQDLERSGLNIEDLEKLQMARPNILGLRNNIYCMAQLLDNSDTAEPTKAGRGASQPPTPTPASDAFQRKLEGCRFLHGYHRFMHSVGRVFSKWGESPNRSRR
modifications: expressed with TGF-beta leader sequence
Sp. Act ([3]; E. coli fusion proteins purified and refolded before testing): > 10,000 GIA units/ug protein
Oncostatin M activity in medium of transfected COS cells [3]: approximately 18,000 units/ml
Expression Level Units/ml (growth inhibitory activity) [3]: 56,000 GIA units/ml

B3: pSV2βOncM/dhfr: Human Oncostatin M gene fused to βTGF leader sequence, with mouse dhfr gene (protein, UniProt P13725 26-221, looked up)
Oncostatin-M: AAIGSCSKEYRVLLGQLQKQTDLMQDTSRLLDPYIRIQGLDVPKLREHCRERPGAFPSEETLRGLGRRGFLQTLNATLGCVLHRLADLEQRLPKAQDLERSGLNIEDLEKLQMARPNILGLRNNIYCMAQLLDNSDTAEPTKAGRGASQPPTPTPASDAFQRKLEGCRFLHGYHRFMHSVGRVFSKWGESPNRSRR
modifications: expressed with TGF-beta leader sequence
Expression Level Units/ml (growth inhibitory activity) [3]: 10,000 GIA units/ml

B4: plasmid pH3M containing just the Oncostatin M sequences: pH3M containing Oncostatin M sequences without the fused βTGF leader sequence (protein, UniProt P13725 26-221, looked up)
Oncostatin-M: AAIGSCSKEYRVLLGQLQKQTDLMQDTSRLLDPYIRIQGLDVPKLREHCRERPGAFPSEETLRGLGRRGFLQTLNATLGCVLHRLADLEQRLPKAQDLERSGLNIEDLEKLQMARPNILGLRNNIYCMAQLLDNSDTAEPTKAGRGASQPPTPTPASDAFQRKLEGCRFLHGYHRFMHSVGRVFSKWGESPNRSRR
Oncostatin M activity in medium of transfected COS cells [3]: No activity was detected

B5: pAc/OncM: Oncostatin M expressed under control of the baculovirus polyhedrin gene regulators (protein, UniProt P13725 26-221, looked up)
Oncostatin-M: AAIGSCSKEYRVLLGQLQKQTDLMQDTSRLLDPYIRIQGLDVPKLREHCRERPGAFPSEETLRGLGRRGFLQTLNATLGCVLHRLADLEQRLPKAQDLERSGLNIEDLEKLQMARPNILGLRNNIYCMAQLLDNSDTAEPTKAGRGASQPPTPTPASDAFQRKLEGCRFLHGYHRFMHSVGRVFSKWGESPNRSRR
modifications: baculovirus-expressed
notes: Oncostatin M expressed under control of the baculovirus polyhedrin gene regulators
Expression Level Units/ml (growth inhibitory activity) [3]: 1,800 GIA units/ml
